Source: patent publication US20160333082A1 (US Dept. of Health and Human Services, published 2016)
One block for each binder: values may come before it.

B1: anti-C3d mouse/human chimeric antibody C8D3 (antibody, V domains shown)
VH: QAYLQQSGAELVRPGASVKMSCKASGYTFTSYYMHWVKQTPRQGLEWIGAIYPGNGDTSYNQKFKGKATLTVDKSSSTAYMQLSSLTSEDSAVYFCAKGFDYWGQGTTVTVSS
VL: DVVMTQTPLSLPVSLGDQASISCRSSQSLVYSNGNTYLHWYLQKPGQSPKLLIYKVSNRFSGVPDRFSGSGSGTDFTLKISRVEAEDLGVYFCSQSTHVPYTFGGGTKLEIKR
notes: also called chimeric C8D3; chimeric C8D3 mAb
B2: murine anti-C3d hybridoma clone C6 (antibody, V domains shown)
VH: QAYLQQSGAELVRPGASVKMSCKASGYTFTSYYMHWVKQTPRQGLEWIGAIYPGNGDTSYNQKFKGKATLTVDKSSSTAYMQLSSLTSEDSAVYFCAKYGSGYWGQGTTVTVSS
VL: B1 VL
notes: Murine IgG1, kappa
B3: anti-C3d Fab of chimeric antibody C8D3 (Fab, V domains shown)
VH: B1 VH
VL: B1 VL

Assays:
[1] = target: T1, human complement protein C3d (human, UniProt P01024 1002-1303); assay: flow cytometry (MFI) on CLL cells taken 24 h after ofatumumab infusion (C3d-opsonised)
T1 construct: domain: C3d; The assay field of each row says which; also called C3d antigen; C3d protein

[2] = target: T1, human complement protein C3d; assay: avidity; antibody titration on C3d-opsonised CLL patient cells, 'OFA 24 h' sample (FIG. 9); apparent KD (avidity) on C3d-opsonized CLL cells, OFA 24 h sample
[3] = target: T1, human complement protein C3d; assay: PEPperCHIP microarray of 15-aa C3d peptides
Description: The epitopes on C3d were mapped using PEPperCHIP technology (PEPperPRINT GmbH, Heidelberg, Germany). In brief, 15 amino acid (aa) long peptides with 14 aa overlaps were synthesized based on the C3d aa sequence and immobilized in duplicate on microarray chips. […] The microarrays were read using the LI-COR Odyssey Imaging System and then analyzed using PepSlide® Analyzer software.

[4] = target: T1, human complement protein C3d; assay: surface plasmon resonance (Biacore 3000), C3d immobilised, Fab at 0.5, 2.5, 5, 25 and 50 nM
[5] = target: B1; assay: competition: C8D3 binding to C3d antigen (MFI) with increasing amounts of peptide

Binder: B1
EC50 (read off the curve) [1]: ~40 nM
Kd [2]: 6.7 nM

Binder: B2
binding result [3]: binds

Binder: B3
Kd [4]: 17 nM

binding result [5]: binds
Binder: QYQKDAPDHQELNLDVSLQLPSR [epitope 3 derived peptide]
